The test system of the series is hSWI/SNF complex (FLAG-tagged) (Homo sapiens (HeLa)). In words: competition. Particulars: scale: fold preference over macroH2A nucleosome.

For 20/60 H2A nucleosome, the binding signal is 9.

The record behind these values is PMC3428728.
